Common to all, as to conditions: both partners purified
The target of test [1] is T1, human IL-17RC extracellular domain (human, UniProt Q8NAC3-2 21-467).
T1 construct: human IL-17RC full-length extracellular domain, residues 21-467 of UniProt entry Q8NAC3-2, secreted with the CD33 signal peptide; numbers count on: isoform Q8NAC3-2; also called IL-17RC ECD; source: GnTI-deficient HEK293S, transient expression, purified (anti-APP antibody column, Resource-Q, Superdex-200 SEC)
T1 sequence (looked up): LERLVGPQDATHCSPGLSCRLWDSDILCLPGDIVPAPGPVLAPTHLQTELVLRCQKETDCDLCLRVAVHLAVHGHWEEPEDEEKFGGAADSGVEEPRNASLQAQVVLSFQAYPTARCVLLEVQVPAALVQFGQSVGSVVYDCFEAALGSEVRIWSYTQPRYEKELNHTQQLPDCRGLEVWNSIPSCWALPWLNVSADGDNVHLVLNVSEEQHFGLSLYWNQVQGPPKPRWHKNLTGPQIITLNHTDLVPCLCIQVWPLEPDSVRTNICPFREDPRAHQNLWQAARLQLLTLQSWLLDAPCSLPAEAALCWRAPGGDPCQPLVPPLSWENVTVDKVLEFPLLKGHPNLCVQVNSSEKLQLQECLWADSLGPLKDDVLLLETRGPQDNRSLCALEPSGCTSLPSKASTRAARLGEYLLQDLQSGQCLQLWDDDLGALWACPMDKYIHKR
Nature of the test: SPR; Biacore 8K; IL-17RC ECD immobilised (about 500 RU) by amine coupling on a CM4 chip; cytokines as analytes in PBS pH 7.4, 3 mM EDTA, 0.05% Tween20; 20 °C, 30 µl/min; 1:1 Langmuir model, steady-state analysis for variants of weaker affinity; mean of at least five independent experiments. Background: SPR reads the build-up and loss of mass on a sensor chip optically.

Test [2] has as its target T2, human IL-17RA extracellular domain (human, UniProt Q96F46 33-320, biotin on the Avi-tag (E. coli BirA), for the SPR measurements only).
T2 construct: human IL-17RA, full-length extracellular domain, residues 33-320 of UniProt Q96F46, cloned behind the CD33 signal peptide; The same construct was used unbiotinylated for the complex and its crystals (treated with PNGaseF and Endoglycosidase H) and biotinylated for SPR; also called IL-17RA ECD; IL-17RA receptor; source: GnTI-deficient HEK293S, transient expression, secreted, purified (anti-APP …)
The test can be described thus: SPR; Biacore 8K; biotinylated IL-17RA ECD immobilised on a streptavidin chip (about 500 RU); cytokines as analytes in PBS pH 7.4, 3 mM EDTA, 0.05% Tween20; 20 °C, 30 µl/min; 1:1 Langmuir model or steady-state analysis.

Test [3] addresses T3, human IL-17RC extracellular domain (human, UniProt Q8NAC3-2 21-467).
T3 construct: human IL-17RC, full-length extracellular domain, residues 21-467 of UniProt Q8NAC3-2, cloned behind the CD33 signal peptide; numbers count on: isoform Q8NAC3-2; also called IL-17RC ECD; IL-17RC receptor
T3 sequence (looked up): T1 sequence (looked up)
Nature of the test: SPR; Biacore 8K; IL-17RC ECD amine-coupled on a CM4 chip (about 500 RU); cytokines as analytes in PBS pH 7.4, 3 mM EDTA, 0.05% Tween20; 20 °C, 30 µl/min; 1:1 Langmuir model or steady-state analysis.

Test [4] has as its target T4, human IL-17RA extracellular domain (human, UniProt Q96F46 33-320, biotin on the Avi-tag (BirA) for SPR measurements).
T4 construct: human IL-17RA full-length extracellular domain, residues 33-320 of UniProt Q96F46, secreted with the CD33 signal peptide; The construct is described 'for crystallization'; the SPR sample is the same ECD biotinylated on its Avi-tag; In the crystal the complex was treated with PNGaseF and Endoglycosidase H and biotinylation is not mentioned; also called IL-17RA ECD; source: GnTI-deficient HEK293S, …
Nature of the test: SPR; Biacore 8K; biotinylated IL-17RA ECD immobilised (about 500 RU) on a streptavidin SA chip; cytokines as analytes in PBS pH 7.4, 3 mM EDTA, 0.05% Tween20; 20 °C, 30 µl/min; 1:1 Langmuir model, steady-state analysis for variants of weaker affinity; mean of at least five independent experiments.

The source of these data is PMC5566378, “The human IL-17A/F heterodimer: a two-faced cytokine with unique receptor recognition properties” (Scientific Reports, 2017).

Positions count from the first letter of the chain named. Names may count otherwise.

B1: human IL-17F homodimer, wild type (ligand, UniProt Q96PD4 31-163, looked up)
chain: RKIPKVGHTFFQKPESCPPVPGGSMKLDIGIINENQRVSMSRNIESRSTSPWNYTVTWDPNRYPSEVVQAQCRNLGCINAQGKEDISMNSVPIQQETLVVRRKHQGCSVSFQLEKVLVTVGCTCVTPVIHHVQ
notes: human IL-17F, residues 31-163 of UniProt Q96PD4, secreted with the CD33 signal peptide (P20138-1); also called IL-17F wt
B1 registered a Kd in test [1] of 4 nM.

B2: human IL-17F homodimer, Arg77 to alanine mutant (ligand, UniProt Q96PD4 31-163, looked up)
chain: B1 chain with R47A
notes: human IL-17F, residues 31-163 of UniProt Q96PD4, cloned behind the CD33 signal peptide and the APP6-tag, R77A; also called IL-17F R77A; point mutant of the IL-17F homodimer; source: HEK293S, transient expression, secreted, purified
Take B2: the “fold reduction in affinity against wild-type IL-17F” value in test [2] is over 5 fold. Also, the “fold reduction in binding affinity against wild-type IL-17F” value in test [3] is at least 200 fold.

B3: human IL-17F homodimer, R77A (ligand, UniProt Q96PD4 31-163, looked up)
chain: B1 chain with R47A
notes: human IL-17F, residues 31-163 of UniProt Q96PD4, secreted with the CD33 signal peptide, Arg77 to alanine; also called IL-17F R77A; source: HEK293S, transient expression, purified (as the wild type)
For B3, the equilibrium dissociation constant (Kd) was found to be 726 nM in test [4] and 905 nM in test [1].

One may read the Kd as the equilibrium constant for the complex coming apart.
